In patent US20200010841:

Target: T1, HFR1^n-131aa-TBPm3 conjugated protein (UniProt Q9FE22)
T1 sequence: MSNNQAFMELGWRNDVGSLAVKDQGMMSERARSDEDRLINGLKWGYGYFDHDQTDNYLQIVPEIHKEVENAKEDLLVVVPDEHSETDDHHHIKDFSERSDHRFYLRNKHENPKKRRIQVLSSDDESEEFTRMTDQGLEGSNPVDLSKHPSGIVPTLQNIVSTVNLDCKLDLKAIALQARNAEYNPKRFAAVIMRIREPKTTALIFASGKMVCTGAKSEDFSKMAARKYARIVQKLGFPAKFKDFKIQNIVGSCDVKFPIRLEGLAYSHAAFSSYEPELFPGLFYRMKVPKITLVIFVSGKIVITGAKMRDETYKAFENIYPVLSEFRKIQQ

Substance: COP1^L105A (Constitutive photomorphogenic1 with amino acid mutation Leu to Ala)
- Histochemical GUS staining of post-meiotic anther tapetum, ES transgenic versus F1 [ES x RS]: no staining was appear in the F1 tapetum of the same anther stage
- Relative expression of BECLIN1 transcript (qRT-PCR) in anther developmental stages of F1 [MS x RS]: When expression of BECLIN1 was checked in different anther developmental stages, it was found that their expression was abolished
